In test [1] the target is murine ICAM-1 on bEnd.3 cells (mouse) (UniProt P13597). In words: cell-based or functional assay.
In test [2] the target is human ICAM-1 on cells (HeLa, 8505C, 8505C/LPS, HMEC-1, T cells) (human) (UniProt P05362). The test is described as follows: cell-based or functional assay.
Test [3] has as its target T1, human ICAM-1 (immobilized, SPR) (human, UniProt P05362 28-480, limits assumed).
T1 construct: Form immobilized on the SPR chip is not described; also called Intercellular adhesion molecule-1; CD54
In words: SPR, I domain over immobilized human ICAM-1.

For test [4], the target named is T2, recombinant human ICAM-1 fused to human Fcγ (R&D Systems) (human, UniProt P05362 28-480).
T2 construct: Bought reagent; also called ICAM-1-Fc; human ICAM-1-Fcγ; not shown: human Fcγ
T2 sequence (P05362 28-480 limits assumed): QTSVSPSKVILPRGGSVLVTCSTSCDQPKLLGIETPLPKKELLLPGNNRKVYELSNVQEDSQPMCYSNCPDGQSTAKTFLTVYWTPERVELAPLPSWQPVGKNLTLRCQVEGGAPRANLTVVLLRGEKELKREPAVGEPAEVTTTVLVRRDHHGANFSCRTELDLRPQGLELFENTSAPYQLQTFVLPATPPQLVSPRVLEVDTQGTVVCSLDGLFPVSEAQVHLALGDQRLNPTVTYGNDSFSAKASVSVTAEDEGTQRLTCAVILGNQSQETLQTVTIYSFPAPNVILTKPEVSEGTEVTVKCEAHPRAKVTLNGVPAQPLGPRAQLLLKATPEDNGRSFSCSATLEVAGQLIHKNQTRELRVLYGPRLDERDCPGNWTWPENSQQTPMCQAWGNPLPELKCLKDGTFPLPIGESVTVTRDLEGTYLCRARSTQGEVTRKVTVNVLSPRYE
The test is described as follows: estimated from flow cytometry MFI of ICAM-1-Fc binding to yeast cells expressing the I domain variant.

Test [5] concerns the target murine ICAM-1 (SPR) (murine, UniProt P13597 28-485, limits assumed). The test is described as follows: SPR, F265S/F292G flowed over murine ICAM-1 (FIG. 1C). (Surface plasmon resonance follows binding to a sensor surface in real time, without labels.)
For test [6], the target named is T1, human ICAM-1 (immobilized, SPR). In words: SPR.
For test [7] the target is unchanged. The test is described as follows: comparison of the Table 1 affinities.
In test [8] the target is T3, human ICAM-1 on cells (HeLa, 8505C, 8505C/LPS, HMEC-1, T cells) (human, UniProt P05362 28-532).
T3 construct: whole, on cells
T3 sequence (P05362 28-532): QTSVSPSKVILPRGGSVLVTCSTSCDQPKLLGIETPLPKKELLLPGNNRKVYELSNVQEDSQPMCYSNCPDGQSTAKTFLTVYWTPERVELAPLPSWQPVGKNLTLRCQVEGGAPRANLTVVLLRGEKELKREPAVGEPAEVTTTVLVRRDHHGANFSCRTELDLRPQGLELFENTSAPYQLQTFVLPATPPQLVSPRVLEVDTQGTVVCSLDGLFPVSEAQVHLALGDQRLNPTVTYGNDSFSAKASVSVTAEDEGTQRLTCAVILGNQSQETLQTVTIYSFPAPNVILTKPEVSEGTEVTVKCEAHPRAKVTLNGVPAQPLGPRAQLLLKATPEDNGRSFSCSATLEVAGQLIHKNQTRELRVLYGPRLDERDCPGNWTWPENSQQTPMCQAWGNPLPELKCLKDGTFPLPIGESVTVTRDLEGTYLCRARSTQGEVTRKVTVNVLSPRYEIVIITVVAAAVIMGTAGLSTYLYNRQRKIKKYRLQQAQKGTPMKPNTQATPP
The test is described as follows: estimated from titrated R6.5 antibody binding to HeLa cells.

The text below walks through data of US20180066035A1 (published 2018).

Some results are limits rather than exact numbers.

One may read the Kd as the constant that tells how readily two partners part at equilibrium.

T1 sequence (P05362 28-480 limits assumed): as the sequence (P05362 28-480 limits assumed) above
Sequence of human ICAM-1 on cells (HeLa, 8505C, 8505C/LPS, HMEC-1, T cells) (human) (P05362 28-532): as the sequence (P05362 28-532) above
Sequence of murine ICAM-1 on bEnd.3 cells (mouse) (P13597 28-537): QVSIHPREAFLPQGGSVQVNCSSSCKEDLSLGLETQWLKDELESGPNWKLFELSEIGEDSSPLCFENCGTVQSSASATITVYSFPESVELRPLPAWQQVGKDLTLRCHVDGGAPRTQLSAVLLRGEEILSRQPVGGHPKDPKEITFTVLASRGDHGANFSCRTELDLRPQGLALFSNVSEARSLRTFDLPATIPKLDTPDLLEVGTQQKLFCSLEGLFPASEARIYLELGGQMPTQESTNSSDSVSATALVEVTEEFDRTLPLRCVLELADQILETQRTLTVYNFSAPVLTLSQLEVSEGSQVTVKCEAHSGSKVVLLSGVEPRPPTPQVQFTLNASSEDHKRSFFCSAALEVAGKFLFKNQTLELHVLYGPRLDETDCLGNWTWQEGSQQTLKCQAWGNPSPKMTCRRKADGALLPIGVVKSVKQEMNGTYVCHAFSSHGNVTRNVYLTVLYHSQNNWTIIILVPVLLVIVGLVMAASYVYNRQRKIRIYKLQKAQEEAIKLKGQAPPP
Sequence of murine ICAM-1 (SPR) (P13597 28-485 limits assumed): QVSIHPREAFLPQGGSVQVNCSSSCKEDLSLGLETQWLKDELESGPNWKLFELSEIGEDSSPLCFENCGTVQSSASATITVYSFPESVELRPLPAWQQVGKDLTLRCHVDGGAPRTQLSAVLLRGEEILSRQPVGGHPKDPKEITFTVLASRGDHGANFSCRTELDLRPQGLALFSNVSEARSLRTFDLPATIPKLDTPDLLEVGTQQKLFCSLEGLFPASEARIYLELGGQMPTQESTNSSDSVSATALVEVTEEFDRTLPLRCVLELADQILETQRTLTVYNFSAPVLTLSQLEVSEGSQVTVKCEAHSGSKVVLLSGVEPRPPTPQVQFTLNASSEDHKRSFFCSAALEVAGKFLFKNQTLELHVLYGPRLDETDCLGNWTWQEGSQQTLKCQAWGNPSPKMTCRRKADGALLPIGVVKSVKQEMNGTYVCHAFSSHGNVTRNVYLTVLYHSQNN

B1: TM (F265S/F292G/G311C) I domain CAR (receptor, part only; not given: Tag, hinge, transmembrane and signaling domains, not shown: another chain or arm of the molecule; a dimerising Fc or GST; small tags and cut ends)
chain: ECIKGNVDLVFLFDGSMSLQPDEFQKILDFMKDVMKKLSNTSYQFAAVQFSTSYKTEFDFSDYVKWKDPDALLKHVKHMLLLTNTFGAINYVATEVFREELGARPDATKVLIIITDGEATDSGNIDAAKDIIRYIIGIGKHSQTKESQETLHKFASKPASEFVKILDTGEKLKDLFTELQKKIYVIECTS
modifications: Disulfide bond between Cys-125 (chain position 2) and the introduced Cys-311 (chain position 188), per paragraph 45.
In test [1], B1 displayed a time (hours) to 50% killing, bEND3 target cells of 13 h. In test [2], this molecule showed a time (hours) to 50% killing, 8505C target cells of 17.1 h; a time (hours) to 50% killing, 8505C/-ICAM-1 target cells of 32.6 h; a time (hours) to 50% killing, 8505C/LPS target cells of 15.1 h; a time (hours) to 50% killing, HMEC target cells of 13.4 h. In test [2], this molecule gave a time (hours) to 50% killing, HeLa target cells of 10.8 h.

B2: F265S/F292G/G311C (TM) LFA-1 I domain (receptor)
chain: ECIKGNVDLVFLFDGSMSLQPDEFQKILDFMKDVMKKLSNTSYQFAAVQFSTSYKTEFDFSDYVKWKDPDALLKHVKHMLLLTNTFGAINYVATEVFREELGARPDATKVLIIITDGEATDSGNIDAAKDIIRYIIGIGKHSQTKESQETLHKFASKPASEFVKILDTGEKLKDLFTELQKKIYVIECTS
modifications: disulfide bond between Cys-311 (G311C) and naturally unpaired Cys-125
notes: also called triple mutant
B2: the Kd in test [3] is around 0.001 µM.

B3: Wild-type (WT) LFA-1 I domain (receptor)
chain: GNVDLVFLFDGSMSLQPDEFQKILDFMKDVMKKLSNTSYQFAAVQFSTSYKTEFDFSDYVKWKDPDALLKHVKHMLLLTNTFGAINYVATEVFREELGARPDATKVLIIITDGEATDSGNIDAAKDIIRYIIGIGKHFQTKESQETLHKFASKPASEFVKILDTFEKLKDLFTELQKKIYVIEG
notes: I domain of the αL subunit of human LFA-1; also called WT I domain; wild-type human I domain
For the molecule B3, binding in test [3] was put at a Kd of 1500 µM.

B4: F292S LFA-1 I domain (receptor)
chain: GNVDLVFLFDGSMSLQPDEFQKILDFMKDVMKKLSNTSYQFAAVQFSTSYKTEFDFSDYVKWKDPDALLKHVKHMLLLTNTFGAINYVATEVFREELGARPDATKVLIIITDGEATDSGNIDAAKDIIRYIIGIGKHFQTKESQETLHKFASKPASEFVKILDTSEKLKDLFTELQKKIYVIEG
As for B4, the dissociation constant Kd in test [4] was 1.24 µM.

B5: F265S/F292G (DM) LFA-1 I domain (receptor)
chain: GNVDLVFLFDGSMSLQPDEFQKILDFMKDVMKKLSNTSYQFAAVQFSTSYKTEFDFSDYVKWKDPDALLKHVKHMLLLTNTFGAINYVATEVFREELGARPDATKVLIIITDGEATDSGNIDAAKDIIRYIIGIGKHSQTKESQETLHKFASKPASEFVKILDTGEKLKDLFTELQKKIYVIEG
Take B5: the Kd in test [3] turned out to be 0.006 µM; in test [5], 2 nM. The “fold higher affinity than the wild-type (WT) I domain” value in test [6] is around 200000 fold.

B6: I309T LFA-1 I domain (receptor)
chain: GNVDLVFLFDGSMSLQPDEFQKILDFMKDVMKKLSNTSYQFAAVQFSTSYKTEFDFSDYVKWKDPDALLKHVKHMLLLTNTFGAINYVATEVFREELGARPDATKVLIIITDGEATDSGNIDAAKDIIRYIIGIGKHFQTKESQETLHKFASKPASEFVKILDTFEKLKDLFTELQKKIYVTEG
Take B6: the Kd in test [4] was 127 µM.

B7: I288N LFA-1 I domain (receptor)
chain: GNVDLVFLFDGSMSLQPDEFQKILDFMKDVMKKLSNTSYQFAAVQFSTSYKTEFDFSDYVKWKDPDALLKHVKHMLLLTNTFGAINYVATEVFREELGARPDATKVLIIITDGEATDSGNIDAAKDIIRYIIGIGKHFQTKESQETLHKFASKPASEFVKNLDTFEKLKDLFTELQKKIYVIEG
On to B7, for which, in test [4], the equilibrium dissociation constant (Kd) was 202 µM.

B8: F265S LFA-1 I domain (receptor)
chain: GNVDLVFLFDGSMSLQPDEFQKILDFMKDVMKKLSNTSYQFAAVQFSTSYKTEFDFSDYVKWKDPDALLKHVKHMLLLTNTFGAINYVATEVFREELGARPDATKVLIIITDGEATDSGNIDAAKDIIRYIIGIGKHSQTKESQETLHKFASKPASEFVKILDTFEKLKDLFTELQKKIYVIEG
In turn, B8 registered a Kd in test [3] of 0.145 µM.

B9: F292G LFA-1 I domain (receptor)
chain: GNVDLVFLFDGSMSLQPDEFQKILDFMKDVMKKLSNTSYQFAAVQFSTSYKTEFDFSDYVKWKDPDALLKHVKHMLLLTNTFGAINYVATEVFREELGARPDATKVLIIITDGEATDSGNIDAAKDIIRYIIGIGKHFQTKESQETLHKFASKPASEFVKILDTGEKLKDLFTELQKKIYVIEG
In turn, B9 showed a time (hours) to 50% killing, bEND3 target cells in test [1] of 16.2 h. In test [2], the time (hours) to 50% killing, 8505C target cells turned out to be 27.3 h; the time (hours) to 50% killing, 8505C/LPS target cells stood at 24 h; the time (hours) to 50% killing, HMEC target cells worked out at 21.1 h; the time (hours) to 50% killing, HeLa target cells was 14.9 h. Binding in test [3] was characterised by a dissociation constant (Kd) of 0.119 µM.

B10: L289G LFA-1 I domain (receptor)
chain: GNVDLVFLFDGSMSLQPDEFQKILDFMKDVMKKLSNTSYQFAAVQFSTSYKTEFDFSDYVKWKDPDALLKHVKHMLLLTNTFGAINYVATEVFREELGARPDATKVLIIITDGEATDSGNIDAAKDIIRYIIGIGKHFQTKESQETLHKFASKPASEFVKIGDTFEKLKDLFTELQKKIYVIEG
On to B10, for which the Kd in test [4] is 0.196 µM.

B11: F292A LFA-1 I domain (receptor)
chain: GNVDLVFLFDGSMSLQPDEFQKILDFMKDVMKKLSNTSYQFAAVQFSTSYKTEFDFSDYVKWKDPDALLKHVKHMLLLTNTFGAINYVATEVFREELGARPDATKVLIIITDGEATDSGNIDAAKDIIRYIIGIGKHFQTKESQETLHKFASKPASEFVKILDTAEKLKDLFTELQKKIYVIEG
In test [2], B11 came in with a time (hours) to 50% killing, 8505C target cells of 41.5 h; a time (hours) to 50% killing, 8505C/LPS target cells of 30.8 h; a time (hours) to 50% killing, HeLa target cells of 18.7 h. The fold lower affinity than the scFv-based R6.5 CAR in test [7] is above 1000 fold. The molecule further had a Kd in test [3] of 20 µM.

B12: L295A LFA-1 I domain (receptor)
chain: GNVDLVFLFDGSMSLQPDEFQKILDFMKDVMKKLSNTSYQFAAVQFSTSYKTEFDFSDYVKWKDPDALLKHVKHMLLLTNTFGAINYVATEVFREELGARPDATKVLIIITDGEATDSGNIDAAKDIIRYIIGIGKHFQTKESQETLHKFASKPASEFVKILDTFEKAKDLFTELQKKIYVIEG
B12: the dissociation constant Kd in test [4] is 37 µM.

B13: R6.5 (mouse anti-human ICAM-1 monoclonal antibody from hybridoma; scFv derived from it) (antibody, V domains shown)
VH: QVQLQQSGPELVRPGVSVKISCKGSGYTFIDYAIHWVKESHAKSLEWIGVISAYSGDTNYNQKFKGKATMTVDKSSNTAYLELARLTSEDSAIYYCARGGWLLLSFDYWGQGTTLTVSS
VL: DVVMTQSPLSLPVSLGDQASISCRSSQSLVHSNGNNYLHWYLQKSGQAPKLLIYKVSNRFSGVPDRFSGSGSGTDFTLKISRVEAEDLGVYFCSQSTHVPLTFGGGTKLEIK
For the molecule B13, the Kd in test [8] is 10 nM.
